Columns and labels:
^125I-IGF-I = target: T1, ^125I-IGF-I (human, UniProt P05019 49-118, radioiodinated (^125I, 2000 Ci/mmol); labelled residue not stated); assay: solution binding of ^125I-IGF-I, charcoal separation; reference wild-type CHO-hIGFBP-3
T1 construct: also called insulin growth factor-I
Experimental: (§1) Binding of ¹²⁵I-IGF-I and ¹²⁵I-IGF-II in solution —¹²⁵I-IGF-I or ¹²⁵I-IGF-II (˜25,000 cpm) was incubated overnight at 4° C. with different concentrations of recombinant hIGFBP-3 standard (R&D Systems), or purified wild-type or mutant CHO-hIGFBP-3 in 0.4 ml phosphate-buffered saline supplemented with 0.2% fatty acid-free bovine serum albumin. Following the addition of 0.5 ml of a 5% suspension of activated charcoal (Sigma) to adsorb unbound IGF tracer, the samples were centrifuged. Radioactivity bound to hIGFBP-3 remained in the charcoal supernate and was quantified in a gamma counter (Yang et al. (1993), supra). DNA synthesis—DNA synthesis was measured in CCL64 cells by the incorporation of the thymidine analog BrdU into newly synthesized as previously described (Wu et al. (2000), supra). Quiescent cells in serum-free medium were stimulated to synthesize DNA by adding EGF. EGF was used to stimulate proliferation instead of serum to avoid introducing IGFs. In brief, the cells were plated in 96-well microtiter plates (30,000 cells/well) in 0.2 ml of DMEM containing 10% fetal calf serum, and incubated for 3 h at 37° C. […] BrdU (10 μM) was added for 2-3 h, the cells were fixed, and BrdU incorporation was quantified by an immunocolorimetric assay using monoclonal antibody to BrdU conjugated to peroxidase. […] The absorbance at 450 nm was measured in a scanning multiwell spectrophotometer.

^125I-IGF-II = target: T2, ^125I-IGF-II (human, UniProt P01344 25-91, radioiodinated (^125I, 2000 Ci/mmol); labelled residue not stated); assay: solution binding of ^125I-IGF-II, charcoal separation; reference wild-type CHO-hIGFBP-3
T2 construct: also called insulin growth factor-II
T2 sequence (P01344 25-91 limits assumed): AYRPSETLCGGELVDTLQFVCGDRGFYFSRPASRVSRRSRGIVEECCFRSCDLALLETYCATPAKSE
Experimental: as §1

T1 sequence (P05019 49-118 limits assumed): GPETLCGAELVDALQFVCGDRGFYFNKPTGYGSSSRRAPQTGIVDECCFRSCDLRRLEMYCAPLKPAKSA

Binder | fold lower concentration of wild-type CHO-hIGFBP-3 that still bound more than the mutant at 200 ng/ml (^125I-IGF-I) [fold] | fold lower concentration of wild-type CHO-hIGFBP-3 that still bound more than the mutant at 200 ng/ml (^125I-IGF-II) [fold]
4m-hIGFBP-3 (R75A, L77A, L80A, L81A mutant CHO-hIGFBP-3) (other, human, mature; Same tagged construct as the wild-type CHO-hIGFBP-3, with four alanine substitutions; also called quadruple mutant) HHHHHHGMASMTGGQQMGRDLYDDDDKGASSAGLGPVVRCEPCDARALAQCAPPPAVCAELVREPGCGCCLTCALSEGQPCGIYTERCGSGLRCQPSPDEAAPAQAAADGRGLCVNASAVSRLRAYLLPAPPAPGNASESEEDRSAGSVESPSVSSTHRVSDPKFHPLHSKIIIIKKGHAKDSQRYKVDYESQSTDTQNFSSESKRETEYGPCRREMEDTLNHLKFLNVLSPRGVHIPNCDKKGFYKKKQCRPSKGRKRGFCWCVDKYGQPLPGYTTKGKEDVHCYSMQSK | > 80 | > 80
6m-hIGFBP-3 (I56A, Y57A, R75A, L77A, L80A, L81A mutant CHO-hIGFBP-3) (other, human, mature; Same tagged construct as the wild-type CHO-hIGFBP-3, with six alanine substitutions; Positions count on mature hIGFBP-3, not on the precursor; also called 6m-CHO-hIGFBP-3) HHHHHHGMASMTGGQQMGRDLYDDDDKGASSAGLGPVVRCEPCDARALAQCAPPPAVCAELVREPGCGCCLTCALSEGQPCGAATERCGSGLRCQPSPDEAAPAQAAADGRGLCVNASAVSRLRAYLLPAPPAPGNASESEEDRSAGSVESPSVSSTHRVSDPKFHPLHSKIIIIKKGHAKDSQRYKVDYESQSTDTQNFSSESKRETEYGPCRREMEDTLNHLKFLNVLSPRGVHIPNCDKKGFYKKKQCRPSKGRKRGFCWCVDKYGQPLPGYTTKGKEDVHCYSMQSK | 80 | > 80
